± gives the uncertainty stated by the source.
Assay: self-splicing fitness, log relative to wild type (ln ratio); higher = more splicing; Tetrahymena group I intron in knt gene, E. coli kanamycin selection, DiMSum; sequences stand for … in CUCUCU…GGAGGGAAAAGUUAUCAGGCAUGCACCUGGUAGCUAGUCUUUAAACCAAUAGAUUGCAUCGGUUUAAAAGGCAAGACCGUCAAAUUGCGGGAAAGGGGUCAACAGCCGUUCAGUACCAAGUCUCAGGGGAAACUUUGAGAUGGCCUUGCAAAGGGUAUGGUAAUAAGCUGACGGACAUGGUCCUAACCACGCAGCCAAGUCCUAAGUCAACAGAUCUUCUGUUGAUAUGGAUGCAGUUCACAGACUAAAUGUCGGUCGGGGAAGAUGUAUUCUUCUCAUAAGAUAUAGUCGGACCUCUCCUUAAUGGGAGCUAGCGGAUGAAGUGAUGCAACACUGGAGCCGCUGGGAACUAAUUUGUAUGCGAAAGUAUAUUGAUUAGUUUUGGAGUACUCGUGGUCG
How it was run: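 DiMSum derived fitness as the error-weighted combination of fold changes across replicates, kanamycin versus no kanamycin, normalised to wild type. E. coli BL21(DE3) held the library, which randomised all eight P1ex-region intron nucleotides within the knt kanamycin-resistance gene on pET-22b(+). Six replicate transformations grew overnight at 37°C or 30°C on LB agar with or without 25 μg/mL kanamycin, also containing 100 μg/mL carbenicillin, 50 μM IPTG and 0.2% rhamnose, and pooled colonies were amplicon-sequenced on an Illumina HiSeq 2500.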

Sequence | self-splicing fitness (ln) (30 °C) | self-splicing fitness (ln) (37 °C)
CAAAAGCAAUAUUACGCAUA | -3.58 ± 0.17 | -1.77 ± 0.12
UUUGAGCAAUAUUACGGUCA | -1.47 ± 0.28 | -3.07 ± 0.4
AAGGAGCAAUAUUACGUUAG | -3.67 ± 0.18 | -2.95 ± 0.22
CAGCAGCAAUAUUACGAAAU | -3.94 ± 0.25 | -2.97 ± 0.27
UAAUAGCAAUAUUACGCAAU | -3.5 ± 0.23 | -2.4 ± 0.26
GUAAAGCAAUAUUACGGGGC | -3.07 ± 0.23 | -2.29 ± 0.15
GGAGAGCAAUAUUACGAGUC | -3.63 ± 0.35 | 
ACUUAGCAAUAUUACGCGAC | -2.91 ± 0.13 | -2.06 ± 0.17
GCGGAGCAAUAUUACGCCCG | -1.19 ± 0.5 | 
UGGCAGCAAUAUUACGAGUC | -2.79 ± 0.17 | -3.11 ± 0.23
GAUUAGCAAUAUUACGUAAG | -2.02 ± 0.18 | -0.715 ± 0.29
UAGGAGCAAUAUUACGUACC | -2.66 ± 0.32 | -2.69 ± 0.43
CUUCAGCAAUAUUACGACCG | 0.185 ± 0.083 | -0.454 ± 0.12
CGUAAGCAAUAUUACGAUUC | -3 ± 0.13 | -2.52 ± 0.16
CCUAAGCAAUAUUACGCACC | -3.09 ± 0.27 | -3.03 ± 0.28
CGAUAGCAAUAUUACGCGGC | -2.93 ± 0.41 | 
CUUUAGCAAUAUUACGCAGC |  | -2.27 ± 0.33
GCUUAGCAAUAUUACGCCAU |  | -2.2 ± 0.39
AGUUAGCAAUAUUACGUCUG | -1.43 ± 0.074 | -1.72 ± 0.11
CGGAAGCAAUAUUACGGGCG | -0.796 ± 0.091 | -0.481 ± 0.12
UCCGAGCAAUAUUACGCUCG | -3.71 ± 0.21 | -3.08 ± 0.37
CAGCAGCAAUAUUACGUAUC | -3.6 ± 0.19 | -2.13 ± 0.13
AUCGAGCAAUAUUACGCGAG | -2.32 ± 0.2 | -1.4 ± 0.14
AUUUAGCAAUAUUACGGUCA | -0.961 ± 0.13 | -0.48 ± 0.12
AGUAAGCAAUAUUACGUCCG | -2.03 ± 0.17 | -0.809 ± 0.21
GGCGAGCAAUAUUACGGCUA | -0.343 ± 0.13 | 0.287 ± 0.14
ACUGAGCAAUAUUACGUGUC | -2.31 ± 0.25 | -2.62 ± 0.28

Sequence | self-splicing fitness (ln) (30 °C) | self-splicing fitness (ln) (37 °C)
GGCUAGCAAUAUUACGUAUU | -0.862 ± 0.1 | -0.777 ± 0.12
GUAUAGCAAUAUUACGGUUA | -1.28 ± 0.11 | -0.761 ± 0.098
UGUUAGCAAUAUUACGUUAU | -2.78 ± 0.16 | -2.67 ± 0.19
UGCGAGCAAUAUUACGCACA | -1.31 ± 0.22 | -2.16 ± 0.28
CUCAAGCAAUAUUACGUCGC | -4.2 ± 0.39 | -2.27 ± 0.33
GGCCAGCAAUAUUACGAUUA | -3.4 ± 0.21 | -2.05 ± 0.15
CCCAAGCAAUAUUACGUGAA | -3.33 ± 0.14 | -2.13 ± 0.14
CCUCAGCAAUAUUACGAUGU | -3.41 ± 0.15 | -1.3 ± 0.12
GUAGAGCAAUAUUACGUUCG | -1.08 ± 0.065 | -0.139 ± 0.13
GUGCAGCAAUAUUACGCUGC | -2.77 ± 0.18 | -2.14 ± 0.35
GAAUAGCAAUAUUACGGGGG | -2.93 ± 0.26 | -1.87 ± 0.25
CCCGAGCAAUAUUACGCUUA | -3.88 ± 0.3 | -2.82 ± 0.33
GAUCAGCAAUAUUACGCCUA | 0.00222 ± 0.13 | 0.0251 ± 0.12
AGAGAGCAAUAUUACGUCCG |  | -1.63 ± 0.33
CGAAAGCAAUAUUACGGUUA | -1.85 ± 0.12 | -2.11 ± 0.1
UACGAGCAAUAUUACGCUCU | -1.85 ± 0.21 | 
AAUGAGCAAUAUUACGAUUU | -1.24 ± 0.095 | -0.73 ± 0.1
AUGUAGCAAUAUUACGUGAC | -4.13 ± 0.34 | -0.782 ± 0.2
UGGCAGCAAUAUUACGCUUG | -2.46 ± 0.12 | -0.728 ± 0.15
GUGGAGCAAUAUUACGUGGG | -2.28 ± 0.13 | -2.7 ± 0.33
CCGCAGCAAUAUUACGGUUA | -3.25 ± 0.2 | -2.26 ± 0.2
UCCGAGCAAUAUUACGUGAC | -4.99 ± 0.41 | -2.66 ± 0.29
UUCCAGCAAUAUUACGGUGA | -0.226 ± 0.061 | 0.234 ± 0.077
CCGUAGCAAUAUUACGCUCA |  | -2.36 ± 0.26
GUAGAGCAAUAUUACGCCGU | -1.3 ± 0.33 | -0.778 ± 0.45
GGUAAGCAAUAUUACGCCCU | -1.86 ± 0.28 | -1.35 ± 0.28
AUCGAGCAAUAUUACGGUGA | -2.39 ± 0.12 | -2.25 ± 0.15

Sequence | self-splicing fitness (ln) (30 °C) | self-splicing fitness (ln) (37 °C)
UUGAAGCAAUAUUACGACAG | 0.483 ± 0.091 | 0.232 ± 0.11
GUCAAGCAAUAUUACGAGGA | -3.75 ± 0.47 | -4.45 ± 0.45
AGUAAGCAAUAUUACGAAAA | -2.29 ± 0.38 | -1.89 ± 0.33
AGCGAGCAAUAUUACGUUUU | -3.47 ± 0.28 | -1.66 ± 0.22
ACCUAGCAAUAUUACGAGGC | -1.58 ± 0.18 | -2.64 ± 0.25
CUACAGCAAUAUUACGUCGC | -4.05 ± 0.3 | -2.11 ± 0.23
GCGAAGCAAUAUUACGGCUG | -1.55 ± 0.1 | -0.574 ± 0.14
CUCUAGCAAUAUUACGCCUG | -2.33 ± 0.36 | 
UCUCAGCAAUAUUACGUAAC | -2.74 ± 0.21 | -2.2 ± 0.28
CAGGAGCAAUAUUACGAGAG | -1.92 ± 0.15 | -1.67 ± 0.17
AUUGAGCAAUAUUACGGAAG |  | -2.63 ± 0.32
GGGAAGCAAUAUUACGCGAU | -3.63 ± 0.27 | -0.798 ± 0.17
AAUAAGCAAUAUUACGGCCA | -0.21 ± 0.12 | -0.615 ± 0.12
AAAAAGCAAUAUUACGGUAG | -3.38 ± 0.21 | -1.45 ± 0.15
CAUAAGCAAUAUUACGUUGG | -2.6 ± 0.095 | -1.26 ± 0.094
UUAUAGCAAUAUUACGGAAU | -3.67 ± 0.36 | 
UUGCAGCAAUAUUACGAUUC | -3.53 ± 0.38 | -1.71 ± 0.19
UACAAGCAAUAUUACGCGAU | -3.74 ± 0.32 | -1.3 ± 0.2
CUACAGCAAUAUUACGGUAA | -0.706 ± 0.066 | -0.344 ± 0.076
CUCCAGCAAUAUUACGGGAU | -2.92 ± 0.11 | -1.18 ± 0.1
UCCUAGCAAUAUUACGAGCA | -1.64 ± 0.42 | -1.11 ± 0.23
ACGGAGCAAUAUUACGGCUU | -3.11 ± 0.4 | 
CGACAGCAAUAUUACGACUG | -1.32 ± 0.089 | -0.0407 ± 0.14
UUUAAGCAAUAUUACGGAAG | -2.97 ± 0.26 | -1.37 ± 0.3
GCGAAGCAAUAUUACGAGCA | -1.52 ± 0.2 | -1.63 ± 0.25
AUUUAGCAAUAUUACGGGGG | -2.97 ± 0.42 | -2.81 ± 0.47
